PMC3281904, “Novel Covalently Linked Insulin Dimer Engineered to Investigate the Function of Insulin Dimerization” (PLoS ONE, 2012)
Marks after values point to notes of the source that are not given here.

Tests used:
[1] = biological target: B25C insulin precursor (human) (UniProt P01308); assay: LC/MS; LC/MS of the fermentations; mass of a disulfide-linked dimer
[2] = hexameric insulin, previously determined, ref 65 (HI), 66 (bovine), 67 (porcine), cited from earlier work
Excerpt: Table 2 The experimental parameters determined from the fit in Figure 2 and results previously determined for hexameric insulin of human and porcine origin. | column: Standard Sedimentation Coefficient s20,w, [S]; Standard Diffusion Coefficient D20,w, (×10−7 [cm^2/s]); Molar mass [kg/mole]; Rh [nm]

Substance	stoichiometry N [1]	Standard Sedimentation Coefficient s20,w ([2]; HI probably affected by non-ideality) [S]	Molar mass [2] [kg/mol]	Rh [2] [nm]	Standard Diffusion Coefficient D20,w [2]
B25C insulin precursor (from UniProt P01308 1-29)	2				
Bovine insulin: hexameric bovine insulin, literature values		3.12	34.4	2.63	8.35 ^* ×10−7 cm^2/s
